# Test results published in PMC9401124.
# Biological target: EsxT (M. abscessus), co-expressed with EsxU in M. smegmatis (Mycobacterium abscessus ATCC 19977)
# Assay: SEC-MALS; purified EsxU/EsxT complex injected at 10 mg/mL on S200 5/150, 0.8 mL/min, 20 mM Tris pH 8.0, 300 mM NaCl, 5% glycerol
substance,measurement,value
"EsxU (M. abscessus), co-expressed with EsxT in M. smegmatis (natural protein)",stoichiometry N,1
